Patent publication US20210155689A1 (SHANGHAI PHARMAEXPLORER, published 2021)
Changes are numbered by the printed parent chain.

T1: human LAG-3 (full length, on the cell surface) (human, UniProt P18627 23-525)
T1 construct: Full-length human LAG-3 expressed on cells; also called HEK293-hLAG-3; HEK293 cells transfected with LAG-3 gene
T1 sequence: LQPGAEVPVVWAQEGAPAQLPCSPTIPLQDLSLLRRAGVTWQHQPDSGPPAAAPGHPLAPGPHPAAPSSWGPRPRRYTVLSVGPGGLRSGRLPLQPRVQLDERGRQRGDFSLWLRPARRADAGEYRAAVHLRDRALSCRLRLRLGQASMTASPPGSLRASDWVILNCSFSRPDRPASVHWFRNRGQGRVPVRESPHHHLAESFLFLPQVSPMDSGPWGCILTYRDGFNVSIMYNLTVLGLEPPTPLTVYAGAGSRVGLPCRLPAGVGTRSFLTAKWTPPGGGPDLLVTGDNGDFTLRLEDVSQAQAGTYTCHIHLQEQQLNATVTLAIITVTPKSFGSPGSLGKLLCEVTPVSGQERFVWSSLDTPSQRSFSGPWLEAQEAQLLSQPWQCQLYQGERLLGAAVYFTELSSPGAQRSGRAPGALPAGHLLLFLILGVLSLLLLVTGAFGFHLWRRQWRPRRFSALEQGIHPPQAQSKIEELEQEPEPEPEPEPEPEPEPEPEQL

T2: monkey LAG-3 (full length, on the cell surface) (monkey, UniProt P18627 24-525 (human entry))
T2 construct: also called HEK293-cLAG-3; monkey LAG-3 protein on the cell surface
T2 chain: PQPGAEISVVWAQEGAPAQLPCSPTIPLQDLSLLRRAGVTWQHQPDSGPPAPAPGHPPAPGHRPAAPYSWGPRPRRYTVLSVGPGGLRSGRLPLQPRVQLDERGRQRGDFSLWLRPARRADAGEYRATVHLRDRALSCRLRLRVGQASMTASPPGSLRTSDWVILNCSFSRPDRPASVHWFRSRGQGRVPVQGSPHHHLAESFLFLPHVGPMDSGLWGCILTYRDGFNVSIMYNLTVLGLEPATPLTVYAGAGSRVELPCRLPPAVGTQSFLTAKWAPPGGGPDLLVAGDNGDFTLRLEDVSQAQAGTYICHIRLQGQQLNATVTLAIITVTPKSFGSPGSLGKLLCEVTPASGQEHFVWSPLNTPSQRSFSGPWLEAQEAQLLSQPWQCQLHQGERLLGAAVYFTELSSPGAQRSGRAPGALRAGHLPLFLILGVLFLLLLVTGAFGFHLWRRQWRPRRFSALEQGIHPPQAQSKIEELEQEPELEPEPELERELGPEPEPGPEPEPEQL

T3: hFc tagged monkey LAG-3 protein (cLAG-3-hFc protein) (monkey; human)
T3 construct: Made in HEK293 cells; also called monkey LAG-3 extracellular domain protein; not shown: human IgG Fc fragment (hFc) of the pCpC vector
T3 chain: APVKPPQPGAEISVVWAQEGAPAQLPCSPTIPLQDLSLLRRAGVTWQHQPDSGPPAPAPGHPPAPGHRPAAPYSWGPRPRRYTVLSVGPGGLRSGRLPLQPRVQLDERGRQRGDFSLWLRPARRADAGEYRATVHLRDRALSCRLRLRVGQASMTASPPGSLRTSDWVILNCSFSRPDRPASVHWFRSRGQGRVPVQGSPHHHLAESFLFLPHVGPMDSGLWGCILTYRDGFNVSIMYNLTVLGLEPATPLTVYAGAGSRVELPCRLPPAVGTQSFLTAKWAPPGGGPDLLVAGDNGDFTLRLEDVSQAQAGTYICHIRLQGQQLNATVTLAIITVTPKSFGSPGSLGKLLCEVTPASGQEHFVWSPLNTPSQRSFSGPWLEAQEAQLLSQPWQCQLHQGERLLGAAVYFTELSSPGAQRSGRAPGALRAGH

B1: 405B8H3 (mouse antibody purified from hybridoma) (antibody, V domains shown)
VH: QVQLQQSGAELVRPGASVTLSCKASGYTFTDYEMHWVKQTPVHGLEWIGATDPETGNSAYNQKFKGKAIMTADKSSSTAYMELRSLTSEDSAVYYCISTGWNDWGQGTSLTVSS
VL: DIKMTQSPSSMYASLGERVTITCKASQDINSYLSWFQQKPGKSPKTLIYRADRLLDGVPSRFSGSGSGQDYSLTISSLEYGDMGIYYCLQYDEFPYTFGGGTKLEIK
notes: also called mAb103-405B8H3; 405B81-13
B2: 105F1E10 (mouse antibody purified from hybridoma) (antibody, V domains shown)
VH: EVQLQQSGPELVKPGASVKMSCRASGYTFTDFKMHWMKQSHGKSLEWIGYIAPNNGGTAYNQKFRGKATLTVNESSNTAYMELRSLTSEDSAVYYCVDWDDVDYWGQGTTLTVSS
VL: B1 VL with P40S, D52N, L55V, G81E, D92V, Y96L, G100A, I106L
notes: also called mAb009-105F1E10
B3: 409B11E12 (mouse antibody purified from hybridoma) (antibody, V domains shown)
VH: B1 VH with P41T, G56S, N57Y, M70L, S98A
VL: B1 VL with I2L, D52N, G81E
notes: also called mAb104-409B11E12
B4: 409D4E10 (mouse antibody purified from hybridoma) (antibody, V domains shown)
VH: B1 VH with Y27N, G56D, S58T, M70L, A72T, S98T, T99S
VL: B1 VL with D52N, G81E, D92N
notes: also called mAb112-409D4E10
B5: 556F6B8 (mouse antibody purified from hybridoma) (antibody, V domains shown)
VH: RVQLKQSGPGLVQPSQSLSITCTVSGFSLIKYGVHWVRQSPGEGLEWLGVIWRGGITDYNAAFMSRLSITKDNSKSQVFFKMNSLQADDTAIYYCAKWDGPLAMDYWGQGTSVTVSS
VL: DIVMTQSHKFLSTSVGDRVSITCKASQDVGTTVAWYQQKPGQSPKLLIYWASTRHTGVPDRFTGSGSGTDFTLTISNVQSEDLADYFCQQYSSYPYTFGGGTKLEIK
notes: also called mAb123-556F6B8
B6: 405B8H3 (LAG-3 mouse-human chimeric antibody) (antibody, V domains shown)
VH: B1 VH
VL: B1 VL
notes: also called mouse-human chimeric antibody 405B8H3
B7: 105F1E10 (LAG-3 mouse-human chimeric antibody) (antibody, V domains shown)
VH: B2 VH
VL: B1 VL with P40S, D52N, L55V, G81E, D92V, Y96L, G100A, I106L
B8: 409D4E10 (LAG-3 mouse-human chimeric antibody) (antibody, V domains shown)
VH: B1 VH with Y27N, G56D, S58T, M70L, A72T, S98T, T99S
VL: B1 VL with D52N, G81E, D92N
B9: 409B11E12 (LAG-3 mouse-human chimeric antibody) (antibody, V domains shown)
VH: B1 VH with P41T, G56S, N57Y, M70L, S98A
VL: B1 VL with I2L, D52N, G81E
B10: 556F6B8 (LAG-3 mouse-human chimeric antibody) (antibody, V domains shown)
VH: B5 VH
VL: B5 VL
notes: also called 556F8B8

Target: T1, human LAG-3 (full length, on the cell …)
Assay: FACS, HEK293-hLAG-3; 0.064 nM
From the text: (§1) The pIRES plasmid with the monkey-derived full-length gene was transfected into the HEK293 cell line to construct a HEK293 stable cell line containing monkey LAG-3 (herein referred to as HEK293-cLAG-3 stable cell line). The HEK293-hLAG-3 stable cell line and HEK293-cLAG-3 stable cell line were expanded in a T-75 cell culture flask to a 90% confluence. The medium was aspirated, and the cells were washed with HBSS (Hanks' Balanced Salt Solution) 1-2 times, then treated with a enzyme-free cell dissociation fluid (Versene solution: Life technology) and the cells were collected. The cells were washed with HBSS buffer for 1-2 times. After counted, the cells were diluted with HBSS to 1-2×10⁶ cells per ml, added with 1% goat serum blocking solution, incubated on ice for 20-30 minutes, and then washed with HBSS for 2 times by centrifugation. The collected cells were suspended in the FACS buffer (HBSS+1% BSA) to 2×10⁶ cells/ml, added as 100 microliters per well to a 96-well FACS reaction plate, added with 100 microliters per well of the antibody sample to be tested, incubated on ice for 1-2 hours. The plate was washed twice with the FACS buffer by centrifugation, added with 100 microliters of fluorescent (Alexa 488)-labeled secondary antibodies per well, and incubated on ice for 0.5-1.0 hours. The plate was washed 2-3 times with FACS buffer by centrifugation, added with 100 μl fixative solution (4% Paraformaldehyde) per well to suspend the cells. 5-10 minutes later, it was washed 1-2 times with FACS buffer by centrifugation. The cells were suspended with 100 microliters of FACS buffer, FACS (FACSCalibur, BD) was used for detection and the results were analyzed.

Binder	Mean fluorescence intensity [MFI]
B1	8.7
B2	8.6
B3	5
B4	4.9
B5	6.8

Target: T2, monkey LAG-3 (full length, on the cell …)
Assay: FACS, HEK293-cLAG-3; 8.000 nM
From the text: as §1

Binder	Mean fluorescence intensity [MFI]
B1	61.4
B2	44.6
B3	69.9
B4	93.8
B5	46.7

Target: T3, hFc tagged monkey LAG-3 protein …
Assay: ELISA, cLAG-3-hFc coated; 0.0067 nM
Protocol: The plate was sealed with plastic film and incubated overnight at 4° C. The plate was washed 2 times with the plate washing solution (PBS+0.01% Tween20) on the next day, and added with the blocking solution (PBS+0.01% Tween20+1% BSA) and blocked at room temperature for 1-2 hours. The blocking solution was poured out, and the plate was added with 50-100 μl of the antibody sample to be tested to each well, incubated at 37° C. for 1-2 hours, and washed 2-3 times with a plate washing solution (PBS+0.01% Tween20). HRP (horseradish peroxidase) labeled secondary antibody was added, and the plate was incubated at 37° C. for 1-2 hours, and washed 2-3 times with a plate washing solution (PBS+0.01% Tween20). 100 μl of TMB substrate was added to each well. After incubated at room temperature for 15-30 minutes, the plate was added with 100 μl of stop solution (1.0N HCl) to each well.

Binder	OD450 [OD450]
B6	0.46
B7	0.26
B8	0.64
B9	0.39
B10	0.46
